This note sets out measurements from patent US20050059132A1.

The target in data set [1] is APC mutant QGNSEDY (ALL) (human) (UniProt P04070). Description: cell-based or functional assay.
For data set [2], the target named is human wild-type activated protein C (human) (UniProt P04070). In words: cell-based or functional assay.
Data set [3] deals with R506Q FVa (FVa Leiden, activated FV:Q506), P12259.
Data set [4] has as its target human plasma factor Va (normal, wild-type), P12259.

R506Q FVa (FVa Leiden, activated FV:Q506), P12259, sequence (P12259 29-2224 R534Q): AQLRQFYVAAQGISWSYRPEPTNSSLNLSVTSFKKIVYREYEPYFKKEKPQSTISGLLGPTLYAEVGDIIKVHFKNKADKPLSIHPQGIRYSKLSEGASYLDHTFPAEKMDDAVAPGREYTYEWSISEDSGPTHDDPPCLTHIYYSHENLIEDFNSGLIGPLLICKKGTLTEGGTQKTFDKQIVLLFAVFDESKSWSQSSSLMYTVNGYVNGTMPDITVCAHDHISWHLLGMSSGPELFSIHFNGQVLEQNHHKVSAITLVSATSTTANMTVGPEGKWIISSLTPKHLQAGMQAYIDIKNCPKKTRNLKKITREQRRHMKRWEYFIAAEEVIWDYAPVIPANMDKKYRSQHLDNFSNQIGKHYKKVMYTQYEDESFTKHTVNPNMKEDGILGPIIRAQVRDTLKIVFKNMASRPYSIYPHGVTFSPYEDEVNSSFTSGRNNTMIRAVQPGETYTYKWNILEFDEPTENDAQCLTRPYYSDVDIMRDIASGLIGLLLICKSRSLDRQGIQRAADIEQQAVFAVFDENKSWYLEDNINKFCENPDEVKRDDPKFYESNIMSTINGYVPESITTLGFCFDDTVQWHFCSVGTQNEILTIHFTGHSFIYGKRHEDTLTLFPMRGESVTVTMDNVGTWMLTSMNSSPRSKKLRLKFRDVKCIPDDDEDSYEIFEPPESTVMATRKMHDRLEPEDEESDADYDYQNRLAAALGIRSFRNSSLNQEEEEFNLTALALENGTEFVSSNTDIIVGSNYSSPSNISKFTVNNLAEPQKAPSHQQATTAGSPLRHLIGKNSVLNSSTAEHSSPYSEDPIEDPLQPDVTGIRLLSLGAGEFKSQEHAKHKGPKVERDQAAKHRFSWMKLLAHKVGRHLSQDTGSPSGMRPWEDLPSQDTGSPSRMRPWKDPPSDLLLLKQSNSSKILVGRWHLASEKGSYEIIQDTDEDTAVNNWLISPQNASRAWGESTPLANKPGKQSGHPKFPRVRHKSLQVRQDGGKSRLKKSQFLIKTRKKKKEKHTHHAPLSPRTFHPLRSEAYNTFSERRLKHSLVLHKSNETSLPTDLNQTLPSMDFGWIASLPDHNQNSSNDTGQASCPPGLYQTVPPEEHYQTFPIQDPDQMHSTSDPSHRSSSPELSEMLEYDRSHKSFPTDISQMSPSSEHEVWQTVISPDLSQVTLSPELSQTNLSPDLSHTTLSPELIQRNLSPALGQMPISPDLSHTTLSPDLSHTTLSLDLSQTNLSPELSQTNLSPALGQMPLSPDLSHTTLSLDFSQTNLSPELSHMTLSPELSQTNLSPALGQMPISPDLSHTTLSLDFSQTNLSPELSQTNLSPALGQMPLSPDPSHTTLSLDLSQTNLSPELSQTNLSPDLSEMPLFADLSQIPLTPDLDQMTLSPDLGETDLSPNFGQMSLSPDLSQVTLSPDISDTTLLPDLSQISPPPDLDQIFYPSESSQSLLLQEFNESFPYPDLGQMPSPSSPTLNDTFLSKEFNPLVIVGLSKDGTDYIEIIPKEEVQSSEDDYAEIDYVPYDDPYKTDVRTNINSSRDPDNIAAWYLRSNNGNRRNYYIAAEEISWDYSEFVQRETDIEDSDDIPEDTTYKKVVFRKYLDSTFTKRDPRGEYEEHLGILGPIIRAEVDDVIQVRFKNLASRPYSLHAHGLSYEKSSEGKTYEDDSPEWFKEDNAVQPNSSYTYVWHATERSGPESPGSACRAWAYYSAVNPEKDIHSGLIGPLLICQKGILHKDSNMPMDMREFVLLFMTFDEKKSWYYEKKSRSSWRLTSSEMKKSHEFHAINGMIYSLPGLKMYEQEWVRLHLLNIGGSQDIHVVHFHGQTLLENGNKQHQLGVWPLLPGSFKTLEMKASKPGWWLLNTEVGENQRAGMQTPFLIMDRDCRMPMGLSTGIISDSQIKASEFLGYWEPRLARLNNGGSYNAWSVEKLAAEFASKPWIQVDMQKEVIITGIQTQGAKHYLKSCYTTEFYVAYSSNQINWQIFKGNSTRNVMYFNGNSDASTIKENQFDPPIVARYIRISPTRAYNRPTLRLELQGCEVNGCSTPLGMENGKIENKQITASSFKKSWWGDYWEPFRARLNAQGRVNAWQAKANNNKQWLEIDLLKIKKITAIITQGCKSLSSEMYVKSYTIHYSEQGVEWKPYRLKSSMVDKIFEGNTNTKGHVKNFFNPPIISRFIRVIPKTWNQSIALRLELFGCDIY
human plasma factor Va (normal, wild-type), P12259, sequence (P12259 29-2224): as the sequence (P12259 29-2224 R534Q) above, with Q506R counted along it

As for “human protein S (from UniProt P07225 42-676)”, in data set [1], the APTT clotting time in protein S deficient plasma with 20 nM APC, in absence of protein S worked out at 160 s and the APTT clotting time in protein S deficient plasma with 20 nM APC, with protein S added was determined as 350 s. Moreover, in data set [2], the APTT clotting time in protein S deficient plasma with 20 nM APC, at the highest protein S concentration was found to be 150 s and the APTT clotting time in protein S deficient plasma with 20 nM APC, in absence of protein S was determined as 100 s.

B1: human wild-type activated protein C (protein)
chain 1: ANSFLEELRHSSLERECIEEICDFEEAKEIFQNVDDTLAFWSKHVDGDQCLVLPLEHPCASLCCGHGTCIDGIGSFSCDCRSGWEGRFCQREVSFLNCSLDNGGCTHYCLEEVGWRRCSCAPGYKLGDDLLQCHPAVKFPCGRPWKRMEKKRSHL
chain 2: LIDGKMTRRGDSPWQVVLLDSKKKLACGAVLIHPSWVLTAAHCMDESKKLLVRLGEYDLRRWEKWELDLDIKEVFVHPNYSKSTTDNDIALLHLAQPATLSQTIVPICLPDSGLAERELNQAGQETLVTGWGYHSSREKEAKRNRTFVLNFIKIPVVPHNECSEVMSNMVSENMLCAGILGDRQDACEGDSGGPMVASFHGTWFLVGLVSWGEGCGLLHNYGVYTKVSRYLDWIHGHIRDKEAPQKSWAP
B1: in data set [3], the “remaining FVa activity over time on incubation with 0.4 nM APC” value is listed as “a slow decrease in FVa activity”. Also, the “loss of FVa activity over time (FXa-mediated prothrombin activation assay) on incubation of 0.76 nM FVa with 0.39 nM APC” value in data set [4] is given as “the initial rapid loss of FVa activity that is observed during the first 5 minutes of incubation”.
